Experimental data as given in PMC8287938, “Identification and structural analysis of the Schizosaccharomyces pombe SMN complex” (Nucleic Acids Research, 2021).
Where “and” joins values, the source holds several entries; their conditions need not be identical. Equal entries are not always repeated. Blank lines part the entries; values can stand above or below the molecule they belong to.

Key:
[1] = target: SpSMN/SpG2^ΔN80/SpG6/SpG7/SpG8^Δ35–58 complex (S. pombe) (UniProt Q09808); experiment: SEC-SAXS; full length SpSMN complexes at various concentrations; molecular weight against the standard SpSMNΔ36–119S130D/SpG2ΔN80
[2] = target: T1, HsG7^46–131 (human, UniProt Q9H840 46-131); experiment: crystal structure; HsG6 1–92/HsG7 46–131/HsG8 190–230, 1.52 Å, PDB 7BBL; settings: both partners purified
T1 construct: human Gemin7, residues 46-131 (residues 47-131 in the model); also called human Gemin7 46-131; His6-HsG7^46–131; source: E. coli BL21(DE3), co-expressed with HsG6 1-92, purified
T1 sequence (looked up): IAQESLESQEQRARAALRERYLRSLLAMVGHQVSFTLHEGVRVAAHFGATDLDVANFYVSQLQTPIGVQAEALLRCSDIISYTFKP

[3] = target: the molecule itself; experiment: SEC-SAXS; low concentrations (peak concentrations 5.8–16 μM); Superdex 200 10/300, 150 mM NaCl, 20 mM HEPES, 1 mM DTT, pH 7.5, 20°C
[4] = target: the molecule itself; experiment: SEC-SAXS; full length SpSMN complexes at various concentrations; molecular weight against the standard SpSMNΔ36–119S130D/SpG2ΔN80
[5] = target: the molecule itself; experiment: SEC; gel filtration chromatography of MBP-YG-domain 252–284 fusion proteins

- stoichiometry N [1]: 4
Molecule: SpSMN/SpG2^ΔN80/SpG6/SpG7/SpG8^Δ35–58 complex (from UniProt Q09808 1-152; P0CU08 81-235)

- binding result [2]: binds
B1: HsG8^190–230 (domain or fragment, human, UniProt Q9NWZ8 190-230, looked up)
chain: TERPGERRQAEMKRLYGDSAAKIQAMEAAVQLSFDKHCDRK
notes: human Gemin8, residues 190-230 (also printed as 191-230; residues 191-227 in the model); also called HsG8^191–230; human Gemin8 C-terminus; source: E. coli BL21(DE3), purified (Glutathione Sepharose, PreScission); not shown: His6, N-terminal, cleaved; GST, N-terminal, cleaved

B2: SpSMN^Δ36–119S130D/SpG2^ΔN80 complex (complex, S. pombe)
chain 1: MDQSQKEVWDDSELRNAFETALHEFKKYHSIEAKGYDETYKKLIMDWYYAGYYTGLAEGLAKSEQRKD
chain 2: RKLEIEAGKKSFDPFLRYLLNIIDKEGERLEQYMESSSLDASILPKNLQQWRVYIEHKAPCWAILAVVDLATVLEILESLSSWLEKDAIDLQSQWIFCFCYKLPELLNGEDISTLRSVLKSLRSTHTSFPALQMSASALQAVLVYRYGQKDLFQT
notes: Gemin2 of Schizosaccharomyces pombe (SpG2) lacking the N-terminus (ΔN80); also called S130D mutant; source: E. coli BL21(DE3), co-expressed (SpSMNΔ36–119S130D/His6-SpG2ΔN80), purified (Ni-NTA, TEV, dialysis); not shown: His6, N-terminal, cleaved
- stoichiometry N [3]: 2

B3: SpSMN^Δ36–119A134E/SpG2^ΔN80 complex (complex, S. pombe)
chain 1: MDQSQKEVWDDSELRNAFETALHEFKKYHSIEAKGYDETYKKLIMSWYYEGYYTGLAEGLAKSEQRKD
chain 2: RKLEIEAGKKSFDPFLRYLLNIIDKEGERLEQYMESSSLDASILPKNLQQWRVYIEHKAPCWAILAVVDLATVLEILESLSSWLEKDAIDLQSQWIFCFCYKLPELLNGEDISTLRSVLKSLRSTHTSFPALQMSASALQAVLVYRYGQKDLFQT
notes: Gemin2 of Schizosaccharomyces pombe (SpG2) lacking the N-terminus (ΔN80); also called A134E mutant; source: E. coli BL21(DE3), co-expressed (SpSMNΔ36–119A134E/His6-SpG2ΔN80), purified (Ni-NTA, TEV, dialysis); not shown: His6, N-terminal, cleaved
- stoichiometry N [3]: 2

B4: SpSMN/SpG2^ΔN80 complex (complex, S. pombe)
chain 1: MDQSQKEVWDDSELRNAFETALHEFKKYHSIEAKGGVSDPDSRLDGEKLISAARTEESISKLEEGEQMINQQTETTLEGDTHIQQFADNKGLSDEKPETRAAETHQEFMEVPPPIRGLTYDETYKKLIMSWYYAGYYTGLAEGLAKSEQRKD
chain 2: RKLEIEAGKKSFDPFLRYLLNIIDKEGERLEQYMESSSLDASILPKNLQQWRVYIEHKAPCWAILAVVDLATVLEILESLSSWLEKDAIDLQSQWIFCFCYKLPELLNGEDISTLRSVLKSLRSTHTSFPALQMSASALQAVLVYRYGQKDLFQT
notes: SMN of Schizosaccharomyces pombe (SpSMN); Gemin2 of Schizosaccharomyces pombe (SpG2) lacking the N-terminus (ΔN80); source: E. coli BL21(DE3), co-expressed (SpSMN/His6-SpG2ΔN80), purified (Ni-NTA, TEV, dialysis); not shown: His6, N-terminal, cleaved
- stoichiometry N [4]: 6 and 8

B5: MBP-Hs-YG-domain^252–284 (wt) (domain or fragment, human, UniProt Q16637 252-284, looked up)
chain: DSLDDADALGSMLISWYMSGYHTGYYMGFRQNQ
notes: human SMN, YG-domain, residues 252-284; vector pETM-41; also called MBP fusion of human YG-box^252–284; wild-type construct; source: E. coli BL21(DE3), purified; immobilized on Amylose resin for the pull-down
- binding result [5]: binds

B6: MBP-Hs-YG-domain^252–284 H273R (domain or fragment, human, UniProt Q16637 252-284, looked up)
chain: DSLDDADALGSMLISWYMSGYRTGYYMGFRQNQ
notes: human SMN, YG-domain, residues 252-284, SMA-causing missense mutation H273R; source: E. coli BL21(DE3), purified; immobilized on Amylose resin for the pull-down
- binding result [5]: binds
